Source: patent US12570725 (DUKE UNIVERSITY, dated 2026)

Legend:
Test in all cases: cell-based or functional assay
[1] = target: Dengue virus serotype 2 virion (Dengue virus serotype 2)
[2] = target: Dengue virus serotype 1 virion (Dengue virus serotype 1)
[3] = target: Dengue virus serotype 3 virion (Dengue virus serotype 3)
[4] = target: Dengue virus serotype 4 virion (Dengue virus serotype 4)

Measured: FRNT50

B1: 119-1-D7 (antibody, V domains shown)
VH: EVQLVESGGGLVKPGGSLRLSCVASGFTFNIYNMNWVRQAPGRGLEWVSSISLSSSYIDYADSVEGRFTISRDNAKNSLSLQMNSLKAEDTAVYYCARGRRGEWLVLHDAFDLWGQGTLVTVSS
VL: EIVLTQSPDTLSLSPGEGATLSCRASRTITSTYLAWYQQKPGQAPRLLMYSVSTRAPGIPDRFSGSGSGTDFTLTISRLEPEDFAVYFCQQYGSTPPYTFGQGTKLEIR
> 5 µg/mL: [1] | [2] | [3] | [4]
